Assays:
[1] = target: T1, “empty” DR4 (DRA*01:01/DRB1*04:01) on yeast (Homo sapiens, UniProt P01903+P01911); experiment: RIPPA competition assay, yeast displaying “empty” DR4, SARS-CoV-2 S peptides; assay type: binding; details: 200 μM competitor vs 20 μM Bio-HA306-318, pH 5.0, 30° C., 20 hours
T1 construct: the α chain ectodomain, with or without the Jun motif, was designed to be secreted from yeast; the DR4 β chain ectodomain, with or without the Fos motif, was engineered to the upstream of yeast AGA2 gene; Syn-pre-pro leader (secretion leader) (N); expressed in transfected cells; host or cells: Saccharomyces cerevisiae EBY100, surface display via Aga1p/Aga2p

[2] = target: T2, “empty” DQ6 (DQA1*01:02/DQB1*06:02) on yeast (Homo sapiens, UniProt P01909+P01920); experiment: RIPPA competition assay, yeast displaying “empty” DQ6, HCRT 15-mer peptides; assay type: binding; details: for DQ6 binding (in words): method not given, possible false positives
T2 construct: A PCR fragment carrying the extracellular domain of HLA-DQA1*0102 with C-terminal Fos was cloned into ptDR1; A second PCR fragment carrying the extracellular domain of HLA-DQB1*0602 with C-terminal Jun was cloned into pDQ6α; Syn-pre-pro leader (secretion leader) (N); expressed in transfected cells; host or cells: Saccharomyces cerevisiae EBY100, surface display via Aga1p/Aga2p
Method: FIGS. 4A-4C. RIPPA identified all DQ6 binders from HCRT. FIG. 4A. Yeast expressing “empty” DQ6 was incubated with 20 μM HCRT1-13-Bio and 200 μM of the indicated non-biotinylated HCRT 15-mer peptide at pH 5.0, 30° C. for 20 hours and analyzed by flow cytometry. % Competition=100%−% binding (% binding as calculated in FIG. 3E). Error bars represent SEM from three independent experiments. Bolded letters denote previously identified 9-aa DQ6-binding registers^4, 5, 42: […], SSGAAAQPL, NHAAGILTL and NHAAGILTM, respectively. HCRT49-63 or HCRT81-95 covers <8 aa of the previously determined registers. Binding ranks for each HCRT peptide predicted by NetMHCIIpan-4.0 (trained on both elution and binding data) are shown as 100-% rank to the left. FIGS. 4B-4C. Correlation analysis for binding data acquired using “empty” DQ6 on yeast versus soluble CLIP/DQ6 protein (FIG. 4B) or versus NetMHCIIpan-4.0 prediction (FIG. 4C). Arrows indicate peptides that show binding in one method but not the other in the comparison. Open circles in FIG. 4B match open bars in FIG. 4A, indicating ligands identified by both empirical methods.
6×10^5 galactose-induced yeast were incubated at pH 5.0, 30° C. for 20 hours with 20 μM biotinylated indicator peptides in the presence of various concentrations of a competitor peptide to determine an appropriate competitor concentration for a competition assay. […] After incubation, the yeast cells were washed with PBS+1% BSA, stained with streptavidin-AF647 and analyzed by flow cytometry as described above. […]
Sufficient amounts of galactose-induced yeast cells displaying “empty” DQ6 were collected by centrifugation at 2,500 g for 3 min and resuspended in the 40 mM citrate buffer (pH 5.0) at a density of 1.5×10^4 cells μl^−1. […] DQ6-associated HCRT1-13-Bio was labeled with streptavidin-AF647 and analyzed by flow cytometry as described above. The binding of a competitor peptide to “empty” DQ6 on yeast was quantified as % competition=100%−[(MFIwith competitor−background)/(MFIwithout competitor−background)]×100%.

T2 sequence (P01909 with tags, fused parts or gaps with the stated changes): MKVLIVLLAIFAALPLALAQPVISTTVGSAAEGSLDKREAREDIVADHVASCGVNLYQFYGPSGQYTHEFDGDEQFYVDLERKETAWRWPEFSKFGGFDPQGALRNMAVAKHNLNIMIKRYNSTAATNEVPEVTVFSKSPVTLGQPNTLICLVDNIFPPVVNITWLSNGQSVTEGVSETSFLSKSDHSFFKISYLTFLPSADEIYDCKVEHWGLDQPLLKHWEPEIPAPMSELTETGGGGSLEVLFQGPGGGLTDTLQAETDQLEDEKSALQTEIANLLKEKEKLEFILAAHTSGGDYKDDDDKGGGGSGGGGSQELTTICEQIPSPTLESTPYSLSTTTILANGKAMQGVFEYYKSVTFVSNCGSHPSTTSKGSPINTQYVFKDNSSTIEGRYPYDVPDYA
T2 sequence (P01920 with tags, fused parts or gaps with the stated changes): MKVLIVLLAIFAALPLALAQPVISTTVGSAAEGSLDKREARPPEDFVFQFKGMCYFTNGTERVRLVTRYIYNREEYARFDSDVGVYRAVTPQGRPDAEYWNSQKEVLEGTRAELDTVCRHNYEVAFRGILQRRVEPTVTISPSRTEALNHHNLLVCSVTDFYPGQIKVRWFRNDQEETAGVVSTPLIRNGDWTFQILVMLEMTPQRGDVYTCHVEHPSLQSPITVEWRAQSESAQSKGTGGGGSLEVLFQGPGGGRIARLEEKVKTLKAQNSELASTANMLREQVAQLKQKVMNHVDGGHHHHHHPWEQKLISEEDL
T2 sequence (P32323 25-725 partner): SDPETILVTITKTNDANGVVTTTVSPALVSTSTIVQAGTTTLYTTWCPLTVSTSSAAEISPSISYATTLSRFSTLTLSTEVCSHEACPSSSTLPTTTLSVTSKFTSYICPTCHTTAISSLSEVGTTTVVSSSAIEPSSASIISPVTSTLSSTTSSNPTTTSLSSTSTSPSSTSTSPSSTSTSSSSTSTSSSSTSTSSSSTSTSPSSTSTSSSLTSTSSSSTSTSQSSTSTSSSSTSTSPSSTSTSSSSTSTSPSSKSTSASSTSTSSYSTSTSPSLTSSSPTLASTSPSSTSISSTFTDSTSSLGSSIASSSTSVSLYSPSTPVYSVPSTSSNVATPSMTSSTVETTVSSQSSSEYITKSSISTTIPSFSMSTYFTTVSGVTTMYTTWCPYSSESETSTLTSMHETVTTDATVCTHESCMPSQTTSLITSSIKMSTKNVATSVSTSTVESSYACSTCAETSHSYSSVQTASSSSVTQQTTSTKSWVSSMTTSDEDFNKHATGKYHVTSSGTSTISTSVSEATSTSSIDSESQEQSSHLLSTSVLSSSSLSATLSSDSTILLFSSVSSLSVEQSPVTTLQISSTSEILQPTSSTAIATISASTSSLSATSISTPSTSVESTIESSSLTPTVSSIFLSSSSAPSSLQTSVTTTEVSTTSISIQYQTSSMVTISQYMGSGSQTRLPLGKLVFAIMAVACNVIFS
T1 sequence (P01903 with tags, fused parts or gaps): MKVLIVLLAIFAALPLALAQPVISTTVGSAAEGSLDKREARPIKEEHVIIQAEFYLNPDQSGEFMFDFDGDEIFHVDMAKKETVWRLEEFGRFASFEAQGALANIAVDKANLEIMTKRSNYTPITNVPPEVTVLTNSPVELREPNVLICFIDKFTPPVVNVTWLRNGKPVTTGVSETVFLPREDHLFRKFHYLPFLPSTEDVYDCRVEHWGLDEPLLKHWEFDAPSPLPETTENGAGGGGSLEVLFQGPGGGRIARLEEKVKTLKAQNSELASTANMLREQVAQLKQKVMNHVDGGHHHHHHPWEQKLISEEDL
T1 sequence (P01911 with tags, fused parts or gaps with the stated changes): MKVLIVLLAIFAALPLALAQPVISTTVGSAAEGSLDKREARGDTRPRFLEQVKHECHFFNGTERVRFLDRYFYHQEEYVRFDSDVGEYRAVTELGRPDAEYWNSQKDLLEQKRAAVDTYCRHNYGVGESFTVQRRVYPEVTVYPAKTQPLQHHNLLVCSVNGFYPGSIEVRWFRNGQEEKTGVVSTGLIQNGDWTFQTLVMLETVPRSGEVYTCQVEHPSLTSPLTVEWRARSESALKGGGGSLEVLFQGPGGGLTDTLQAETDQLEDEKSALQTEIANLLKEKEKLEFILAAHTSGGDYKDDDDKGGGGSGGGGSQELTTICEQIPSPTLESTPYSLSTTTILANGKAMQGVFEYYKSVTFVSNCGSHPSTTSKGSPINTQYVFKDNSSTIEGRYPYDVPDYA
T1 sequence (P32323 25-725 partner): as the sequence (P32323 25-725 partner) above

| Substance | % competition [1] [%] | DQ6 binding (in words) [2] | further results |
| --- | --- | --- | --- |
| 5862-888: DR4 ligand peptide from the SARS-CoV-2 S protein (label probably misprinted) (PPLLTDEMIAQYTSALL) | ~75 | – | – |
| HCRT49-63: 15-mer overlapping peptide derived from prepro-HCRT (hypocretin precursor) (LYELLHGAGNHAAGI; UniProt O43612 49-63, looked up, fragment) | – | bound DQ6 | – |
| HCRT81-95: 15-mer overlapping peptide derived from prepro-HCRT (hypocretin precursor) (QRLLQASGNHAAGIL; UniProt O43612 81-95, looked up, fragment) | – | bound DQ6 | – |
| HCRT89-103: 15-mer overlapping peptide derived from prepro-HCRT (hypocretin precursor) (NHAAGILTMGRRAGA) | – | – | % competition ([2]; 200 μM competitor vs 20 μM HCRT1-13-Bio, pH 5.0, 30° C., 20 hours): > 75% |
| S764-780: 17-mer overlapping peptide derived from the SARS-CoV-2 S protein (NRALTGIAVEQDKNTQE) | < 50 | – | – |
| S1058-1074: 17-mer overlapping peptide derived from the SARS-CoV-2 S protein (HGVVFLHVTYVPAQEKN) | ~75 | – | – |

Source: US20220381793A1, “COMPOSITIONS AND METHODS FOR IDENTIFYING MHC-II BINDING PEPTIDES” (priority 2021, published 2022)
